Experimental findings from patent US20230053214A1 (MACQUARIE UNIVERSITY, published 2023) are described below.

Assay [1] has as its target T1, rat PSD95 (FLAG-PSD-95), expressed in transfected cells (rat, UniProt P31016 1-724).
T1 construct: eGFP-PSD-95 (293T lysate) was used for microscale thermophoresis and PSD-95 internally tagged with mCherry for FLIM/FRET; not shown: FLAG tag
The assay can be described thus: co-IP with PSD-95 from transfected cells, immunoblot.

For assay [2], the target named is T1, rat PSD95 (FLAG-PSD-95), expressed in …. Kind of assay: co-IP from transfected cells, immunoblot.
Method: Briefly, cells were lysed in pTNN buffer (20 mM Tris pH7.4, 150 mM NaCl, 1 mM EDTA, 1 mM Na3VO4, 1 mM NaF, 1 mM glycerophosphate, 2.5 mM Na₂H₂P₂O₇, 1 mM PMSF, protease inhibitors (Complete, Roche), 1% NP-40 substitute (Sigma-Aldrich)) on ice. Lysates were cleared by centrifugation (16,000×g/10 min/4° C.). Protein concentration was determined (DC Protein Assay, BioRad) and 200 μg of lysate incubated with antibody (1:400) for 3 h on a rotator at 4° C. Equilibrated and blocked protein G-beads (Life Technologies) were incubated with lysates for 45 min on a rotator at 4° C. Beads were then washed 3 times and incubated in sample buffer for 5 min at 95° C. before SDS-PAGE. Cortical or hippocampal tissues were homogenized in RIPA buffer (20 mM Tris pH8.0, 150 mM NaCl, 1 mM EDTA, 1 mM Na3VO4, 1 mM NaF, 1 mM glycerophosphate, 2.5 mM sodium pyrophosphate, 1 mM PMSF, protease inhibitors (Complete, Roche), 1% NP-40 substitute (Sigma-Aldrich), SDS, sodium deoxycholate) and subjected to immunoprecipitation as outlined above.
Assay [3] has as its target T2, human tau (441 amino acids), wild-type (human, UniProt P10636 1-758).
T2 construct: Expressed in transfected cells for co-IP; GST-tau (E. coli) was used for microscale thermophoresis and GST pulldown, eGFP-tau for FLIM/FRET, recombinant tau for kinase assays; also called hTau40; WT tau; not shown: V5 tag from vector pcDNA3.2/V5-DEST
Kind of assay: co-IP with V5-tagged tau from transfected cells, immunoblot.

Substitutions are numbered along the chain they refer to. In names and notes the source's numbering stands.

T1 sequence (P31016 whole entry): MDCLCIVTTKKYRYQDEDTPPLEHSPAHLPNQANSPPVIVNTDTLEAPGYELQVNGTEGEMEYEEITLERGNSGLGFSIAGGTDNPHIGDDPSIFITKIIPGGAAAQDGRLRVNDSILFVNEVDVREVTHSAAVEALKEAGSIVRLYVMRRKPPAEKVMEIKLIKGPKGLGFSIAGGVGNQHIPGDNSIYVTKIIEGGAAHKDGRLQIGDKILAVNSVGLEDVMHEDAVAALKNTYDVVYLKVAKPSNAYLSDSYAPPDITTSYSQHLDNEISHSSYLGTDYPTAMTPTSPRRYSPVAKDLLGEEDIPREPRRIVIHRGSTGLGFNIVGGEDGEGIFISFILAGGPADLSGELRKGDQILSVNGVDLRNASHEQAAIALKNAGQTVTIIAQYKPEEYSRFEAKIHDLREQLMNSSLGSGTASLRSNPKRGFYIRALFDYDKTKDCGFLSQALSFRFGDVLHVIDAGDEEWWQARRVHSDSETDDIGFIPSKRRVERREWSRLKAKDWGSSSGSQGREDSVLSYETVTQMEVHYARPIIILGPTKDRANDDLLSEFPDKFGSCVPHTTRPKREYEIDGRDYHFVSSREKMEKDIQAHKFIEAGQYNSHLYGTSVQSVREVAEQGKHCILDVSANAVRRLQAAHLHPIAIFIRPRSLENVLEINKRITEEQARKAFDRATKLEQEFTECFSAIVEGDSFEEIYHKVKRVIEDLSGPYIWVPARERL
T2 sequence (P10636 other isoform, or with tags, fused parts or gaps): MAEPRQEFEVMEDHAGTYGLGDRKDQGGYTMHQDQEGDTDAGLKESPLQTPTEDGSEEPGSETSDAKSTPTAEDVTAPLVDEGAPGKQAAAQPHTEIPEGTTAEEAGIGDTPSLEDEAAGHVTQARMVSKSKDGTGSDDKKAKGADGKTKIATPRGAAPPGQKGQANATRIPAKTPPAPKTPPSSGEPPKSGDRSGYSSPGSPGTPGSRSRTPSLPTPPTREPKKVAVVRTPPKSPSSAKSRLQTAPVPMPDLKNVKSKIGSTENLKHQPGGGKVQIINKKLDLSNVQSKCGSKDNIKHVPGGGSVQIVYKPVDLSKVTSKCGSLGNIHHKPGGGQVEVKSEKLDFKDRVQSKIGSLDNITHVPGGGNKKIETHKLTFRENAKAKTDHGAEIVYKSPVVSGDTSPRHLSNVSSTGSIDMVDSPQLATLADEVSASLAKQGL

B1: WT p38γ with deletion of the C-terminal PDZ-binding motif (ΔPm) (enzyme)
chain: MSSPPPARSGFYRQEVTKTAWEVRAVYRDLQPVGSGAYGAVCSAVDGRTGAKVAIKKLYRPFQSELFAKRAYRELRLLKHMRHENVIGLLDVFTPDETLDDFTDFYLVMPFMGTDLGKLMKHEKLGEDRIQFLVYQMLKGLRYIHAAGIIHRDLKPGNLAVNEDCELKILDFGLARQADSEMTGYVVTRWYRAPEVILNWMRYTQTVDIWSVGCIMAEMITGKTLFKGSDHLDQLKEIMKVTGTPPAEFVQRLQSDEAKNYMKGLPELEKKDFASILTNASPLAVNLLEKMLVLDAEQRVTAGEALAHPYFESLHDTEDEPQVQKYDDSFDDVDRTLDEWKRVTYKEVLSFKPPRQLGARVSK
notes: also called p38γ ΔPm; ΔPDZm; not shown: N-terminal HA-tag
Turning to B1, the binding result in assay [1] is on record as “no binding”.

B2: CA p38γ with deletion of the C-terminal PDZ-binding motif (ΔPm) (enzyme)
chain: B1 chain with D179A
notes: also called p38γ^CA ΔPm; ΔPDZm; not shown: N-terminal HA-tag
As for B2, in assay [1], the binding result is given as “no binding”.

B3: human wild-type p38γ (HA-tagged) (enzyme)
chain: MSSPPPARSGFYRQEVTKTAWEVRAVYRDLQPVGSGAYGAVCSAVDGRTGAKVAIKKLYRPFQSELFAKRAYRELRLLKHMRHENVIGLLDVFTPDETLDDFTDFYLVMPFMGTDLGKLMKHEKLGEDRIQFLVYQMLKGLRYIHAAGIIHRDLKPGNLAVNEDCELKILDFGLARQADSEMTGYVVTRWYRAPEVILNWMRYTQTVDIWSVGCIMAEMITGKTLFKGSDHLDQLKEIMKVTGTPPAEFVQRLQSDEAKNYMKGLPELEKKDFASILTNASPLAVNLLEKMLVLDAEQRVTAGEALAHPYFESLHDTEDEPQVQKYDDSFDDVDRTLDEWKRVTYKEVLSFKPPRQLGARVSKETPL
notes: Recombinant p38γ from bacteria was used in the in vitro kinase assays; also called p38γ WT; wild-type p38γ (WT); not shown: N-terminal HA-tag
As to B3, the binding result in assay [2] and in assay [3] was “binds” throughout.

B4: constitutive active p38γ (D179A), HA-tagged (enzyme)
chain: B3 chain with D179A
notes: also called p38γ^CA; p38γ CA; not shown: N-terminal HA-tag
Take B4: the binding result in assay [2] and in assay [3] was “binds” each time.
